Assay results published in US20240016931A1 (JIANGSU HENGRUI PHARMACEUTICALS, published 2024).

Molecular target: T1, Fc-tagged human TSLP antigen (huTSLP-Fc) (human, biotin-labeled in the blocking assays)
T1 construct: whole entry named; also called recombinant human TSLP-Fc
Assay: competition ELISA: blocks TSLP binding to TSLP receptor

Binder	IC50
hu199-06 (antibody, human IgG1, kappa, V domains shown, IgG1-YTE, kappa) VH: EVQLVQSGAEVKKPGASVKVSCKASGYTFTTYWMHWVRQAPGQGLEWMGMIDPSDSETTLIQKFKDRVTMTVDKSTSTAYMELSSLRSEDTAVYYCARTLDGYYDYWGQGTTVTVSS VL: DIQMTQSPSSLSASVGDRVTITCRASENIYSYLAWYQQKPGKSPQLLVYFAKTLAEGVPSRFSGSVSGTQFTLTISSLQPEDFATYYCQHHYGTPWTFGGGTKVEIKR	0.381 nM
hu199-07 (antibody, human IgG1, kappa, V domains shown, IgG1-YTE, kappa) VH: EVQLVQSGAEVKKPGASVKVSCKASGYTFTTYWMHWVRQAPGQGLEWMGMIDPSDSETTLIQKFKDRVTLTVDKSTSTAYMELSSLRSEDTAVYYCARTLDGYYDYWGQGTTVTVSS VL: DIQMTQSPSSLSASVGDRVTITCRASENIYSYLAWYQQKPGKAPKLLIYFAKTLAEGVPSRFSGSGSGTDFTLTISSLQPEDFATYYCQHHYGTPWTFGGGTKVEIKR	0.283 nM
hu199-09 (antibody, human IgG1, kappa, V domains shown, IgG1-YTE, kappa) VH: EVQLVQSGAEVKKPGASVKVSCKASGYTFTTYWMHWVRQAPGQGLEWMGMIDPSDSETTLIQKFKDRVTLTVDKSTSTAYMELSSLRSEDTAVYYCARTLDGYYDYWGQGTTVTVSS VL: DIQMTQSPSSLSASVGDRVTITCRASENIYSYLAWYQQKPGKSPQLLVYFAKTLAEGVPSRFSGSGSGTQFTLTISSLQPEDFATYYCQHHYGTPWTFGGGTKVEIKR	0.273 nM
hu199-10 (antibody, human IgG1, kappa, V domains shown, IgG1-YTE, kappa) VH: EVQLVQSGAEVKKPGASVKVSCKASGYTFTTYWMHWVRQAPGQGLEWMGMIDPSDSETTLIQKFKDRVTLTVDKSTSTAYMELSSLRSEDTAVYYCARTLDGYYDYWGQGTTVTVSS VL: DIQMTQSPSSLSASVGDRVTITCRASENIYSYLAWYQQKPGKAPKLLIYFAKTLAEGVPSRFSGSVSGTDFTLTISSLQPEDFATYYCQHHYGTPWTFGGGTKVEIKR	0.391 nM
hu199-11 (antibody, human IgG1, kappa, V domains shown, IgG1-YTE, kappa) VH: EVQLVQSGAEVKKPGASVKVSCKASGYTFTTYWMHWVRQAPGQGLEWMGMIDPSDSETTLIQKFKDRVTLTVDKSTSTAYMELSSLRSEDTAVYYCARTLDGYYDYWGQGTTVTVSS VL: DIQMTQSPSSLSASVGDRVTITCRASENIYSYLAWYQQKPGKAPKLLVYFAKTLAEGVPSRFSGSVSGTDFTLTISSLQPEDFATYYCQHHYGTPWTFGGGTKVEIKR	0.365 nM
hu199-12 (antibody, human IgG1, kappa, V domains shown, IgG1-YTE, kappa) VH: EVQLVQSGAEVKKPGASVKVSCKASGYTFTTYWMHWVRQAPGQGLEWMGMIDPSDSETTLIQKFKDRVTLTVDKSTSTAYMELSSLRSEDTAVYYCARTLDGYYDYWGQGTTVTVSS VL: DIQMTQSPSSLSASVGDRVTITCRASENIYSYLAWYQQKPGKSPQLLVYFAKTLAEGVPSRFSGSVSGTQFTLTISSLQPEDFATYYCQHHYGTPWTFGGGTKVEIKR	0.37 nM
hu199-13 (antibody, human IgG1, kappa, V domains shown, IgG1-YTE, kappa) VH: EVQLVQSGAEVKKPGASVKVSCKASGYTFTTYWMHWVRQAPGQGLEWIGMIDPSDSETTLIQKFKDRATLTVDKSTSTAYMELSSLRSEDTAVYYCARTLDGYYDYWGQGTTVTVSS VL: DIQMTQSPSSLSASVGDRVTITCRASENIYSYLAWYQQKPGKAPKLLIYFAKTLAEGVPSRFSGSGSGTDFTLTISSLQPEDFATYYCQHHYGTPWTFGGGTKVEIKR	0.239 nM
hu199-14 (antibody, human IgG1, kappa, V domains shown, IgG1-YTE, kappa) VH: EVQLVQSGAEVKKPGASVKVSCKASGYTFTTYWMHWVRQAPGQGLEWIGMIDPSDSETTLIQKFKDRATLTVDKSTSTAYMELSSLRSEDTAVYYCARTLDGYYDYWGQGTTVTVSS VL: DIQMTQSPSSLSASVGDRVTITCRASENIYSYLAWYQQKPGKAPKLLVYFAKTLAEGVPSRFSGSGSGTDFTLTISSLQPEDFATYYCQHHYGTPWTFGGGTKVEIKR	0.311 nM
hu199-15 (antibody, human IgG1, kappa, V domains shown, IgG1-YTE, kappa) VH: EVQLVQSGAEVKKPGASVKVSCKASGYTFTTYWMHWVRQAPGQGLEWIGMIDPSDSETTLIQKFKDRATLTVDKSTSTAYMELSSLRSEDTAVYYCARTLDGYYDYWGQGTTVTVSS VL: DIQMTQSPSSLSASVGDRVTITCRASENIYSYLAWYQQKPGKSPQLLVYFAKTLAEGVPSRFSGSGSGTQFTLTISSLQPEDFATYYCQHHYGTPWTFGGGTKVEIKR	0.287 nM
hu199-16 (antibody, human IgG1, kappa, V domains shown, IgG1-YTE, kappa) VH: EVQLVQSGAEVKKPGASVKVSCKASGYTFTTYWMHWVRQAPGQGLEWIGMIDPSDSETTLIQKFKDRATLTVDKSTSTAYMELSSLRSEDTAVYYCARTLDGYYDYWGQGTTVTVSS VL: DIQMTQSPSSLSASVGDRVTITCRASENIYSYLAWYQQKPGKAPKLLIYFAKTLAEGVPSRFSGSVSGTDFTLTISSLQPEDFATYYCQHHYGTPWTFGGGTKVEIKR	0.737 nM
hu199-17 (antibody, human IgG1, kappa, V domains shown, IgG1-YTE, kappa) VH: EVQLVQSGAEVKKPGASVKVSCKASGYTFTTYWMHWVRQAPGQGLEWIGMIDPSDSETTLIQKFKDRATLTVDKSTSTAYMELSSLRSEDTAVYYCARTLDGYYDYWGQGTTVTVSS VL: DIQMTQSPSSLSASVGDRVTITCRASENIYSYLAWYQQKPGKAPKLLVYFAKTLAEGVPSRFSGSVSGTDFTLTISSLQPEDFATYYCQHHYGTPWTFGGGTKVEIKR	0.611 nM
hu199-18 (antibody, human IgG1, kappa, V domains shown, IgG1-YTE, kappa) VH: EVQLVQSGAEVKKPGASVKVSCKASGYTFTTYWMHWVRQAPGQGLEWIGMIDPSDSETTLIQKFKDRATLTVDKSTSTAYMELSSLRSEDTAVYYCARTLDGYYDYWGQGTTVTVSS VL: DIQMTQSPSSLSASVGDRVTITCRASENIYSYLAWYQQKPGKSPQLLVYFAKTLAEGVPSRFSGSVSGTQFTLTISSLQPEDFATYYCQHHYGTPWTFGGGTKVEIKR	0.481 nM
hu199-19 (antibody, human IgG1, kappa, V domains shown, IgG1-YTE, kappa) VH: EVQLVQSGAEVKKPGASVKVSCKASGYTFTTYWMHWVKQAPGQGLEWIGMIDPSDSETTLIQKFKDKATLTVDKSTSTAYMELSSLRSEDTAVYYCARTLDGYYDYWGQGTTVTVSS VL: DIQMTQSPSSLSASVGDRVTITCRASENIYSYLAWYQQKPGKAPKLLIYFAKTLAEGVPSRFSGSGSGTDFTLTISSLQPEDFATYYCQHHYGTPWTFGGGTKVEIKR	0.658 nM
hu199-20 (antibody, human IgG1, kappa, V domains shown, IgG1-YTE, kappa) VH: EVQLVQSGAEVKKPGASVKVSCKASGYTFTTYWMHWVKQAPGQGLEWIGMIDPSDSETTLIQKFKDKATLTVDKSTSTAYMELSSLRSEDTAVYYCARTLDGYYDYWGQGTTVTVSS VL: DIQMTQSPSSLSASVGDRVTITCRASENIYSYLAWYQQKPGKAPKLLVYFAKTLAEGVPSRFSGSGSGTDFTLTISSLQPEDFATYYCQHHYGTPWTFGGGTKVEIKR	0.4 nM
hu199-21 (antibody, human IgG1, kappa, V domains shown, IgG1-YTE, kappa) VH: EVQLVQSGAEVKKPGASVKVSCKASGYTFTTYWMHWVKQAPGQGLEWIGMIDPSDSETTLIQKFKDKATLTVDKSTSTAYMELSSLRSEDTAVYYCARTLDGYYDYWGQGTTVTVSS VL: DIQMTQSPSSLSASVGDRVTITCRASENIYSYLAWYQQKPGKSPQLLVYFAKTLAEGVPSRFSGSGSGTQFTLTISSLQPEDFATYYCQHHYGTPWTFGGGTKVEIKR	0.535 nM
hu199-22 (antibody, human IgG1, kappa, V domains shown, IgG1-YTE, kappa) VH: EVQLVQSGAEVKKPGASVKVSCKASGYTFTTYWMHWVKQAPGQGLEWIGMIDPSDSETTLIQKFKDKATLTVDKSTSTAYMELSSLRSEDTAVYYCARTLDGYYDYWGQGTTVTVSS VL: DIQMTQSPSSLSASVGDRVTITCRASENIYSYLAWYQQKPGKAPKLLIYFAKTLAEGVPSRFSGSVSGTDFTLTISSLQPEDFATYYCQHHYGTPWTFGGGTKVEIKR	0.345 nM
hu199-23 (antibody, human IgG1, kappa, V domains shown, IgG1-YTE, kappa) VH: EVQLVQSGAEVKKPGASVKVSCKASGYTFTTYWMHWVKQAPGQGLEWIGMIDPSDSETTLIQKFKDKATLTVDKSTSTAYMELSSLRSEDTAVYYCARTLDGYYDYWGQGTTVTVSS VL: DIQMTQSPSSLSASVGDRVTITCRASENIYSYLAWYQQKPGKAPKLLVYFAKTLAEGVPSRFSGSVSGTDFTLTISSLQPEDFATYYCQHHYGTPWTFGGGTKVEIKR	0.337 nM
hu199-24 (antibody, human IgG1, kappa, V domains shown, IgG1-YTE, kappa) VH: EVQLVQSGAEVKKPGASVKVSCKASGYTFTTYWMHWVKQAPGQGLEWIGMIDPSDSETTLIQKFKDKATLTVDKSTSTAYMELSSLRSEDTAVYYCARTLDGYYDYWGQGTTVTVSS VL: DIQMTQSPSSLSASVGDRVTITCRASENIYSYLAWYQQKPGKSPQLLVYFAKTLAEGVPSRFSGSVSGTQFTLTISSLQPEDFATYYCQHHYGTPWTFGGGTKVEIKR	0.496 nM
hu199-25 (antibody, human IgG1, kappa, V domains shown, IgG1-YTE, kappa) VH: EVQLVQSGAEVKKPGASVKVSCKASGYTFTTYWMHWVKQAPGQGLEWMGMIDPSDSETTLIQKFKDKVTMTVDKSTSTAYMELSSLRSEDTAVYYCARTLDGYYDYWGQGTTVTVSS VL: DIQMTQSPSSLSASVGDRVTITCRASENIYSYLAWYQQKPGKAPKLLIYFAKTLAEGVPSRFSGSGSGTDFTLTISSLQPEDFATYYCQHHYGTPWTFGGGTKVEIKR	0.246 nM
hu199-26 (antibody, human IgG1, kappa, V domains shown, IgG1-YTE, kappa) VH: EVQLVQSGAEVKKPGASVKVSCKASGYTFTTYWMHWVKQAPGQGLEWMGMIDPSDSETTLIQKFKDKVTMTVDKSTSTAYMELSSLRSEDTAVYYCARTLDGYYDYWGQGTTVTVSS VL: DIQMTQSPSSLSASVGDRVTITCRASENIYSYLAWYQQKPGKAPKLLVYFAKTLAEGVPSRFSGSGSGTDFTLTISSLQPEDFATYYCQHHYGTPWTFGGGTKVEIKR	0.365 nM
hu199-27 (antibody, human IgG1, kappa, V domains shown, IgG1-YTE, kappa) VH: EVQLVQSGAEVKKPGASVKVSCKASGYTFTTYWMHWVKQAPGQGLEWMGMIDPSDSETTLIQKFKDKVTMTVDKSTSTAYMELSSLRSEDTAVYYCARTLDGYYDYWGQGTTVTVSS VL: DIQMTQSPSSLSASVGDRVTITCRASENIYSYLAWYQQKPGKSPQLLVYFAKTLAEGVPSRFSGSGSGTQFTLTISSLQPEDFATYYCQHHYGTPWTFGGGTKVEIKR	0.354 nM
hu199-28 (antibody, human IgG1, kappa, V domains shown, IgG1-YTE, kappa) VH: EVQLVQSGAEVKKPGASVKVSCKASGYTFTTYWMHWVKQAPGQGLEWMGMIDPSDSETTLIQKFKDKVTMTVDKSTSTAYMELSSLRSEDTAVYYCARTLDGYYDYWGQGTTVTVSS VL: DIQMTQSPSSLSASVGDRVTITCRASENIYSYLAWYQQKPGKAPKLLIYFAKTLAEGVPSRFSGSVSGTDFTLTISSLQPEDFATYYCQHHYGTPWTFGGGTKVEIKR	0.462 nM
